The labels stand for the following.
B1: HDV Ribozyme (parent)
chain: GGCCGGCAUGGUCCCAGCCUCCUCGCUGGCGCCGGCUGGGCAACAUUCCGAGGGGACCGUCCCCUCGGUAAUGGCGAAUGGGACCCA

The values below come from the RNAGym collection of RNA variant scans (doi:10.7554/elife.80360).

This data set covers variants of B1. The data set can be described thus: self-cleavage, relative activity (ratio to wild type); higher = more cleavage; co-transcriptional.
Take GGCCGGCAUGGUCCCAGCCUCCUCGCUGGCUCCGGCUGGGCAACAUUCCGAGGGGACCUUCCCCUCGGUAAUGGCGAAUGGGACCCA [G31U G59U]: the self-cleavage came to 0.617.
Next, GGCCGGCAUGGUCCCAGCCUCCUCGCUGGCUCCGGCUGGGCAACAUUCCGAGGGGACCAUCCCCUCGGUAAUGGCGAAUGGGACCCA [G31U G59A]: 0.546; GGCCGGCAUGGUCCCAGCCUCCUCGCUGGCGACGGCUGGGCAACGUUCCGAGGGGACCGUCCCCUCGGUAAUGGCGAAUGGGACCCA [C32A A45G]: 0.198; GGCCGGCAUGGUCCCAGCCUCCUCGCUGGCGACGGCUGGGCAACUUUCCGAGGGGACCGUCCCCUCGGUAAUGGCGAAUGGGACCCA [C32A A45U]: 0.151.
Regarding GGCCGGCAUGGUCCCAGCCUCCUCGCUGGCUCCGGCUGGGCAACAUUCCGAGGGGACCGUCCCCUCGGUAAUGGCAAAUGGGACCCA [G31U G76A], the self-cleavage is 0.369.
Next, GGCCGGCAUGGUCCCAGCCUCCUCGCUGGCGACGGCUGGGCAACAUUCCGCGGGGACCGUCCCCUCGGUAAUGGCGAAUGGGACCCA [C32A A51C]: 0.244.
Turning to GGCCGGCAUGGUCCCAGCCUCCUCGCUGGCGACGGCUGGGCAACAUUCCGGGGGGACCGUCCCCUCGGUAAUGGCGAAUGGGACCCA [C32A A51G], the self-cleavage was 0.162.
Next, GGCCGGCAUGGUCCCAGCCUCCUCGCUGGCUCCGGCUGGGCAACAUUCCGAAGGGACCGUCCCCUCGGUAAUGGCGAAUGGGACCCA [G31U G52A]: 0.431; GGCCGGCAUGGUCCCAGCCUCCUCGCUGGCUCCGGCUGGGCAACAUUCCGAGAGGACCGUCCCCUCGGUAAUGGCGAAUGGGACCCA [G31U G53A]: 0.289.
GGCCGGCAUGGUCCCAGCCUCCUCGCUGGCUCCGGCUGGGCAACAUUCCGAGUGGACCGUCCCCUCGGUAAUGGCGAAUGGGACCCA [G31U G53U]: the self-cleavage was determined as 0.322.
Next, GGCCGGCAUGGUCCCAGCCUCCUCGCUGGCUCCGGCUGGGCAACAUUCCGAGGGGACCGUCCCCUCGGGAAUGGCGAAUGGGACCCA [G31U U69G]: 0.386; GGCCGGCAUGGUCCCAGCCUCCUCGCUGGCUCCGGCUGGGCAACAUUCCGAGGGGACCGUCCCCUCGGCAAUGGCGAAUGGGACCCA [G31U U69C]: 0.396.
Next, GGCCGGCAUGGUCCCAGCCUCCUCGCUGGCUCCGGCUGGGCAACAUUCCGAGGGGACCGUCCCCUCGGUAAUGGCGAAUGGAACCCA [G31U G82A]: 0.185; GGCCGGCAUGGUCCCAGCCUCCUCGCUGGCUCCGGCUGGGCAACAUUCCGAGGGGACCGUCCCCUCGGUAAUGGCGAAUGGUACCCA [G31U G82U]: 0.0378; GGCCGGCAUGGUCCCAGCCUCCUCGCUGGCUCCUGCUGGGCAACAUUCCGAGGGGACCGUCCCCUCGGUAAUGGCGAAUGGGACCCA [G31U G34U]: 0.0791.
Regarding GGCCGGCAUGGUCCCAGCCUCCUCGCUGGCUCCGGCUGGGCAACAUUCCGAGGGGACCGUCCCCUCGAUAAUGGCGAAUGGGACCCA [G31U G68A], the self-cleavage turned out to be 0.38.
Next, GGCCGGCAUGGUCCCAGCCUCCUCGCUGGCUCCGGCUGGGCAACAUUCCGAGGGGACCGUCCCCUCGUUAAUGGCGAAUGGGACCCA [G31U G68U]: 0.427; GGCCGGCAUGGUCCCAGCCUCCUCGCUGGCUCCGGCUGGGCAACAUUCCGAGGGGACCGUCCCCUCGCUAAUGGCGAAUGGGACCCA [G31U G68C]: 0.344; GGCCGGCAUGGUCCCAGCCUCCUCGCUGGCUCCGGCUGGGCAACAUUCCGAGGUGACCGUCCCCUCGGUAAUGGCGAAUGGGACCCA [G31U G54U]: 0.369.
Next, GGCCGGCAUGGUCCCAGCCUCCUCGCUGGCUCCGGCUGGGCAACAUUCCGAGGCGACCGUCCCCUCGGUAAUGGCGAAUGGGACCCA [G31U G54C]: 0.197; GGCCGGCAUGGUCCCAGCCUCCUCGCUGGCUCCGGCUGGGCAACAUUCCGAGGAGACCGUCCCCUCGGUAAUGGCGAAUGGGACCCA [G31U G54A]: 0.403.
Next, GGCCGGCAUGGUCCCAGCCUCCUCGCUGGCUCCGGCUGGGCAACAUUCCGAGGGGACCGUCCCCUCGGUAAUGACGAAUGGGACCCA [G31U G74A]: 0.151; GGCCGGCAUGGUCCCAGCCUCCUCGCUGGCUCCGGCUGGGCAACAUUCCGAGGGGACCGUCCCCUCGGUAAUGGCGAAUGGGACUCA [G31U C85U]: 0.441; GGCCGGCAUGGUCCCAGCCUCCUCGCUGGCUCCGGCUGGGCAACAUUCCGAGGGGACCGUCCCCUCGGUAAUGGCGAAUGGGACACA [G31U C85A]: 0.288.
For the variant GGCCGGCAUGGUCCCAGCCUCCUCGCUGGCUCCGGCUGGGCAACAUUCCGAGGGGACCGACCCCUCGGUAAUGGCGAAUGGGACCCA [G31U U60A], the self-cleavage worked out at 0.379.
Next, GGCCGGCAUGGUCCCAGCCUCCUCGCUGGCUCCGGCUGGGCAACAUUCCGAGGGGACCGGCCCCUCGGUAAUGGCGAAUGGGACCCA [G31U U60G]: 0.212; GGCCGGCAUGGUCCCAGCCUCCUCGCUGGCUCCGGCUGGGCAACAUUCCGAGGGGACCGCCCCCUCGGUAAUGGCGAAUGGGACCCA [G31U U60C]: 0.639.
Regarding GGCCGGCAUGGUCCCAGCCUCCUCGCUGGCUCCGGCUGGGCAACAUUCCGAGGGAACCGUCCCCUCGGUAAUGGCGAAUGGGACCCA [G31U G55A], the self-cleavage amounted to 0.506.
For GGCCGGCAUGGUCCCAGCCUCCUCGCUGGCUCCGGCUGGGCAACAUUCCGAGGGUACCGUCCCCUCGGUAAUGGCGAAUGGGACCCA [G31U G55U], the self-cleavage came to 0.324.
Next, GGCCGGCAUGGUCCCAGCCUCCUCGCUGGCUCCGGCUGGGCAACACUCCGAGGGGACCGUCCCCUCGGUAAUGGCGAAUGGGACCCA [G31U U46C]: 0.306; GGCCGGCAUGGUCCCAGCCUCCUCGCUGGCUCCGGCUGGGCAACAUUCCGAGGGGACCGUCCCCACGGUAAUGGCGAAUGGGACCCA [G31U U65A]: 0.318.
As for GGCCGGCAUGGUCCCAGCCUCCUCGCUGGCUCCGGCUGGGCAACAUUCCGAGGGGACCGUCCCCGCGGUAAUGGCGAAUGGGACCCA [G31U U65G], the self-cleavage was 0.383.
